Key:
Human in house BCMA = biological target: T1, Human in house BCMA (Homo sapiens, UniProt Q02223); assay: ProteOn analysis of CA8 chimeric and humanised constructs, human in house BCMA; assay type: binding; conditions: for ka / kd: Run 1, Human in house BCMA, ProteOn, 25° C.; for ka: in M-1s-1 (unit assumed); for kd: in s-1 (unit assumed); for off rate: Run 2, ProteOn, recombinant human BCMA, no affinity values obtained
T1 construct: CD33 signal peptide (N); TEV site (internal); Fc (C); made in house
Method: The initial screen of CA8 chimeric and humanised variants was carried out on the ProteOn XPR36 (Biorad). The method was as follows; Protein A was immobilised on a GLC chip (Biorad, Cat No: 176-5011) by primary amine coupling, CA8 variants were then captured on this surface and recombinant human BCMA (in house or commercial US Biological, B0410) materials (run 2 only)) passed over at 256, 64, 16, 4, 1 nM with a 0 nM injection (i.e. buffer alone) used to double reference the binding curves, the buffer used is the HBS-EP buffer. 50 mM NaOH was used to regenerate the capture surface. The data was fitted to the 1:1 model using the analysis software inherent to the ProteOn XPR36. Run 1 corresponds to the first screen of humanised CA8 variants (JO to J5 series) and run 2 to the second screen of humanised CA8 variants (J5 to J9 series). Both runs were carried out at 25° C.

Cyno in house BCMA = assay: ProteOn analysis of CA8 chimeric and humanised constructs, cyno in house BCMA; assay type: binding; conditions: Run 1, Cyno in house BCMA, 25° C.; for ka: in M-1s-1 (unit assumed); for kd: in s-1 (unit assumed)
Sequence of Cyno in house BCMA (as listed by the source): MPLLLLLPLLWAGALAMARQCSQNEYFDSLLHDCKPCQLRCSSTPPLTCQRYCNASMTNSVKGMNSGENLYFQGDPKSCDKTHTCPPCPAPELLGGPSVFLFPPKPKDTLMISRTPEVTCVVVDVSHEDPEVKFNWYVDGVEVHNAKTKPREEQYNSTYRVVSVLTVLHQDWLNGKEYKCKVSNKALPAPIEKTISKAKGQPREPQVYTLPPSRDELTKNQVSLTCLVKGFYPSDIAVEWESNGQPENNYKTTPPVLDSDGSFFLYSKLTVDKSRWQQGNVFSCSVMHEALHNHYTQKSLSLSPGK

T1 sequence (Q02223 with tags, fused parts or gaps limits assumed): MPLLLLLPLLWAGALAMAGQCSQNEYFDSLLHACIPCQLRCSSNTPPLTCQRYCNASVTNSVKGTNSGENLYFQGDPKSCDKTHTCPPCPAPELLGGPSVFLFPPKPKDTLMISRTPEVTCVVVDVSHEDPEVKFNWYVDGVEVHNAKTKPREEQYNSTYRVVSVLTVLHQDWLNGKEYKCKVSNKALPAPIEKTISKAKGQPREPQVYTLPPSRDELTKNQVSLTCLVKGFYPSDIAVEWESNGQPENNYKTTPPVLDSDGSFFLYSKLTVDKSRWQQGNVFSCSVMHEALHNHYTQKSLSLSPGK

ka (Human in house BCMA) | kd (Human in house BCMA) | off rate (Human in house BCMA) | kd (Cyno in house BCMA) | Molecule | ka (Cyno in house BCMA)
2.67E+05 | 3.21E−05 | beyond the sensitivity of the assay | 4.70E−05 | CA8 humanised J5M2: humanised CA8 anti-BCMA antibody, VH J5 (SEQ ID NO:21) + VL M2 (SEQ ID NO:35) (antibody, V domains shown, Humansed antibody sequence) VH: QVQLVQSGAEVKKPGSSVKVSCKGSGYTFTNYWMHWVRQAPGQGLEWMGATYRGHSDTYYNQKFKGRVTITADTSTSTAYMELSSLRSEDTAVYYCTRGAIYDGYDVLDNWGQGTLVTVSS VL: DIQLTQSPSSLSASVGDRVTITCSASQDISNYLNWYQQKPGKAPELVIYYTSNLHSGVPSRFSGSGSGTDYTLTISSLQPEDFATYYCQQYRKLPWTFGQGTKLEIKR | 4.30E+05
2.66E+05 | 9.64E−05 | – | 5.87E−05 | CA8 humanised J3M2: humanised CA8 anti-BCMA antibody, VH J3 (SEQ ID NO:17) + VL M2 (SEQ ID NO:35) (antibody, V domains shown, Humansed antibody sequence) VH: QVQLVQSGAEVKKPGSSVKVSCKGSGYTFTNYWMHWVRQAPGQGLEWMGATYRGHSDTYYNQKFKGRVTITADTSTSTAYMELSSLRSEDTAVYYCTRGAIYNGYDVLDNWGQGTLVTVSS VL: DIQLTQSPSSLSASVGDRVTITCSASQDISNYLNWYQQKPGKAPELVIYYTSNLHSGVPSRFSGSGSGTDYTLTISSLQPEDFATYYCQQYRKLPWTFGQGTKLEIKR | 3.69E+05
2.54E+05 | 7.04E−05 | – | 7.10E−05 | CA8 humanised J4M1: humanised CA8 anti-BCMA antibody, VH J4 (SEQ ID NO:19) + VL M1 (SEQ ID NO:33) (antibody, V domains shown, Humansed antibody sequence) VH: QVQLVQSGAEVKKPGSSVKVSCKGSGYTFTNYWMHWVRQAPGQGLEWIGATYRGHSDTYYNQKFKGRATLTADTSTSTAYMELSSLRSEDTAVYYCTRGAIYNGYDVLDNWGQGTLVTVSS VL: DIQMTQSPSSLSASVGDRVTITCSASQDISNYLNWYQQKPGKAPKLLIYYTSNLHSGVPSRFSGSGSGTDYTLTISSLQPEDFATYYCQQYRKLPWTFGQGTKLEIKR | 3.50E+05
2.51E+05 | 7.06E−05 | – | 6.15E−05 | CA8 humanised J4M2: humanised CA8 anti-BCMA antibody, VH J4 (SEQ ID NO:19) + VL M2 (SEQ ID NO:35) (antibody, V domains shown, Humansed antibody sequence) VH: QVQLVQSGAEVKKPGSSVKVSCKGSGYTFTNYWMHWVRQAPGQGLEWIGATYRGHSDTYYNQKFKGRATLTADTSTSTAYMELSSLRSEDTAVYYCTRGAIYNGYDVLDNWGQGTLVTVSS VL: DIQLTQSPSSLSASVGDRVTITCSASQDISNYLNWYQQKPGKAPELVIYYTSNLHSGVPSRFSGSGSGTDYTLTISSLQPEDFATYYCQQYRKLPWTFGQGTKLEIKR | 3.44E+05
2.25E+05 | 6.97E−05 | – | 1.84E−04 | CA8 humanised J0M2: humanised CA8 anti-BCMA antibody, VH J0 (SEQ ID NO:11) + VL M2 (SEQ ID NO:35) (antibody, V domains shown, Humansed antibody sequence) VH: QVQLVQSGAEVKKPGSSVKVSCKASGGTFSNYWMHWVRQAPGQGLEWMGATYRGHSDTYYNQKFKGRVTITADKSTSTAYMELSSLRSEDTAVYYCARGAIYNGYDVLDNWGQGTLVTVSS VL: DIQLTQSPSSLSASVGDRVTITCSASQDISNYLNWYQQKPGKAPELVIYYTSNLHSGVPSRFSGSGSGTDYTLTISSLQPEDFATYYCQQYRKLPWTFGQGTKLEIKR | 3.26E+05
2.31E+05 | 8.60E−05 | – | 1.67E−04 | CA8 humanised J0M1: humanised CA8 anti-BCMA antibody, VH J0 (SEQ ID NO:11) + VL M1 (SEQ ID NO:33) (antibody, V domains shown, Humansed antibody sequence) VH: QVQLVQSGAEVKKPGSSVKVSCKASGGTFSNYWMHWVRQAPGQGLEWMGATYRGHSDTYYNQKFKGRVTITADKSTSTAYMELSSLRSEDTAVYYCARGAIYNGYDVLDNWGQGTLVTVSS VL: DIQMTQSPSSLSASVGDRVTITCSASQDISNYLNWYQQKPGKAPKLLIYYTSNLHSGVPSRFSGSGSGTDYTLTISSLQPEDFATYYCQQYRKLPWTFGQGTKLEIKR | 3.32E+05
2.05E+05 | 9.87E−05 | – | 3.17E−05 | CA8 humanised J2M2: humanised CA8 anti-BCMA antibody, VH J2 (SEQ ID NO:15) + VL M2 (SEQ ID NO:35) (antibody, V domains shown, Humansed antibody sequence) VH: QVQLVQSGAEVKKPGSSVKVSCKASGYTFTNYWMHWVRQAPGQGLEWMGATYRGHSDTYYNQKFKGRVTITADKSTSTAYMELSSLRSEDTAVYYCTRGAIYNGYDVLDNWGQGTLVTVSS VL: DIQLTQSPSSLSASVGDRVTITCSASQDISNYLNWYQQKPGKAPELVIYYTSNLHSGVPSRFSGSGSGTDYTLTISSLQPEDFATYYCQQYRKLPWTFGQGTKLEIKR | 2.98E+05
2.85E+05 | 1.25E−04 | – | 7.93E−05 | CA8 humanised J3M1: humanised CA8 anti-BCMA antibody, VH J3 (SEQ ID NO:17) + VL M1 (SEQ ID NO:33) (antibody, V domains shown, Humansed antibody sequence) VH: QVQLVQSGAEVKKPGSSVKVSCKGSGYTFTNYWMHWVRQAPGQGLEWMGATYRGHSDTYYNQKFKGRVTITADTSTSTAYMELSSLRSEDTAVYYCTRGAIYNGYDVLDNWGQGTLVTVSS VL: DIQMTQSPSSLSASVGDRVTITCSASQDISNYLNWYQQKPGKAPKLLIYYTSNLHSGVPSRFSGSGSGTDYTLTISSLQPEDFATYYCQQYRKLPWTFGQGTKLEIKR | 4.04E+05
2.97E+05 | 4.32E−05 | beyond the sensitivity of the assay | 5.41E−05 | CA8 humanised J5M1: humanised CA8 anti-BCMA antibody, VH J5 (SEQ ID NO:21) + VL M1 (SEQ ID NO:33) (antibody, V domains shown, Humansed antibody sequence) VH: QVQLVQSGAEVKKPGSSVKVSCKGSGYTFTNYWMHWVRQAPGQGLEWMGATYRGHSDTYYNQKFKGRVTITADTSTSTAYMELSSLRSEDTAVYYCTRGAIYDGYDVLDNWGQGTLVTVSS VL: DIQMTQSPSSLSASVGDRVTITCSASQDISNYLNWYQQKPGKAPKLLIYYTSNLHSGVPSRFSGSGSGTDYTLTISSLQPEDFATYYCQQYRKLPWTFGQGTKLEIKR | 4.81E+05

Reference: patent US11419945B2, “Antigen binding proteins” (Glaxo Group Limited, priority 2011, dated 2022)
